Experimental data: the RNAGym collection of RNA variant scans (doi:10.7554/elife.90254)

B1: LINE1-mini (parent)
chain: GGCAGAGCUCAACACAGCGUGGCAAAGUGGCUGUGGCUAGACUGCC

Variants of: B1
Assay: self-cleavage, relative activity (ratio to wild type); higher = more cleavage; in vitro, sequencing; the parent is a self-cleaving ribozyme
G7C A39U showed a self-cleavage of 0.15. G2C C31G gave a self-cleavage of 0.06. C15G G22U gave a self-cleavage of 0.3. Work on C31U U32C yielded a self-cleavage of 0.08. A14C C37U gave a self-cleavage of 0.02. Variant A41C C42G has a self-cleavage of 0.07. Work on A14G U20A yielded a self-cleavage of 0.23. A26G A39G showed a self-cleavage of 0.05. With A25C G33U the self-cleavage was 0.15. C15A G35A showed a self-cleavage of 0.1. For C23A C31A, the self-cleavage was 0.26. A25C U34G showed a self-cleavage of 0.06. For A14G G36C, the self-cleavage was 0.07. Work on G27C C45U yielded a self-cleavage of 2.02. A12C A41U gave a self-cleavage of 0.03. In the case of G1C A4U, the self-cleavage is reported as 0.06. Variant G30U A41U has a self-cleavage of 0.64. Work on A6U G40A yielded a self-cleavage of 0.35. With A6C G44U the self-cleavage was 0.18. Variant C23A U32C has a self-cleavage of 0.47. In the case of G2U G19C, the self-cleavage is reported as 0.03. G19U A25C gave a self-cleavage of 0.61. With C13A C46A the self-cleavage was 0.07. Work on G5A G19U yielded a self-cleavage of 0.11. Variant G1A A6C has a self-cleavage of 0.81. C8U U9C gave a self-cleavage of 0.06. G27C G29A showed a self-cleavage of 0.39. With G5U A11U the self-cleavage was 0.04. A26C U34A showed a self-cleavage of 0.1. Variant G2C U32C has a self-cleavage of 0.08. C10U G21A gave a self-cleavage of 0.68. In the case of C3G G27C, the self-cleavage is reported as 0.13. In the case of G33A G44A, the self-cleavage is reported as 0.1. Work on A4U C15G yielded a self-cleavage of 0.06. U9G A25U showed a self-cleavage of 0.14. For G7U C42G, the self-cleavage was 0.12. With G33A C42A the self-cleavage was 0.08. In the case of A26U G44C, the self-cleavage is reported as 0.64. With C13G A14U the self-cleavage was 0.09. With G19A G33A the self-cleavage was 0.11. A4U G7U showed a self-cleavage of 0.2. With G7U A24C the self-cleavage was 0.06. Work on C10U G19C yielded a self-cleavage of 0.24. Work on A12G G21U yielded a self-cleavage of 0.03. Work on G2U A16G yielded a self-cleavage of 0.05. In the case of G5C G30A, the self-cleavage is reported as 0.02. A16C G21U showed a self-cleavage of 0.07. In the case of A16C G22A, the self-cleavage is reported as 0.1. A16C C31A showed a self-cleavage of 0.08. For U20A C23U, the self-cleavage was 0.8. U9G G33C showed a self-cleavage of 0.05. For C3U G44U, the self-cleavage was 0.23. A25C G29A gave a self-cleavage of 0.75. C3U G19A showed a self-cleavage of 0.83. For G1C G36A, the self-cleavage was 0.05. G21C A26C showed a self-cleavage of 1.03. A6U G30A gave a self-cleavage of 1.65. Variant G5A U20G has a self-cleavage of 0.13. In the case of A4G G19U, the self-cleavage is reported as 0.56. Work on C8G G40A yielded a self-cleavage of 0.13. A6C A26U gave a self-cleavage of 0.77. Variant G21A C31G has a self-cleavage of 0.13. A25C C45A gave a self-cleavage of 0.23. For U20C G40C, the self-cleavage was 0.06. For U20C C31G, the self-cleavage was 0.07. For G5U C8U, the self-cleavage was 0.26. In the case of A16C U34A, the self-cleavage is reported as 0.04. G2C C46U gave a self-cleavage of 0.07. A41C C45U showed a self-cleavage of 0.1. With G30C U34G the self-cleavage was 0.1. C3A C15U showed a self-cleavage of 0.41. In the case of A12C C13A, the self-cleavage is reported as 0.08. A24U C45A gave a self-cleavage of 0.31. For C15A G29U, the self-cleavage was 0.12. Work on A4G A41G yielded a self-cleavage of 0.11. G7U G27C showed a self-cleavage of 0.1. For G7C A41G, the self-cleavage was 0.04. C10A G17U gave a self-cleavage of 0.05. With G29C C31U the self-cleavage was 0.93. With A24C C31G the self-cleavage was 0.03. With U32G U34C the self-cleavage was 0.06. For G21U C31G, the self-cleavage was 0.08. In the case of C31G A39U, the self-cleavage is reported as 0.06. A39G C46U showed a self-cleavage of 0.07. Work on G30A C45G yielded a self-cleavage of 0.4. G19C C37G gave a self-cleavage of 0.02. Work on A39C C45A yielded a self-cleavage of 0.14. A6C C23A gave a self-cleavage of 0.5. In the case of C23A C42G, the self-cleavage is reported as 0.06. A24C A41U gave a self-cleavage of 0.26. In the case of C3U A6G, the self-cleavage is reported as 0.09. Variant C15U G44C has a self-cleavage of 0.31. For A16U U20G, the self-cleavage was 0.03. Variant G1A A39C has a self-cleavage of 0.14. Work on A12C G36C yielded a self-cleavage of 0.02. G29U C45U showed a self-cleavage of 1.99. For G2U U9G, the self-cleavage was 0.06. C3U A26U showed a self-cleavage of 0.67. In the case of C18A A41G, the self-cleavage is reported as 0.13. G17U C45U showed a self-cleavage of 0.18. Work on G29A C31G yielded a self-cleavage of 0.39. Variant C3U C45G has a self-cleavage of 0.12. With G5A G36U the self-cleavage was 0.14. In the case of C13A U32A, the self-cleavage is reported as 0.11. For G22C A24U, the self-cleavage was 0.52. For G29A G44C, the self-cleavage was 0.34. A41U G44A gave a self-cleavage of 0.31. A6C U32G gave a self-cleavage of 0.05. For G22A U34G, the self-cleavage was 0.51. Work on C15A C37U yielded a self-cleavage of 0.1. With C10U A39G the self-cleavage was 0.08. For G27C A39U, the self-cleavage was 0.76. With C23U A25C the self-cleavage was 0.86. G5C U34C showed a self-cleavage of 0.06. A14U G36U showed a self-cleavage of 0.24. C15A G17A gave a self-cleavage of 0.14. U20G U34A showed a self-cleavage of 0.06. With G29C C46A the self-cleavage was 0.68. A25C U43G gave a self-cleavage of 0.12. C3G A24G gave a self-cleavage of 0.5. With U9C U43A the self-cleavage was 0.03. G27A U38G gave a self-cleavage of 0.02. G7A G17U showed a self-cleavage of 0.12. Work on A6G C45U yielded a self-cleavage of 0.11. In the case of G5U U32A, the self-cleavage is reported as 0.07. Work on A11C A16U yielded a self-cleavage of 0.02. Work on G22A A39U yielded a self-cleavage of 0.5. In the case of G5C C10U, the self-cleavage is reported as 0.04. G40U C45U showed a self-cleavage of 0.15. A25C G29U gave a self-cleavage of 1.19. With A11G G44C the self-cleavage was 0.03. C23U U28G gave a self-cleavage of 0.6. For U38C G44A, the self-cleavage was 0.3. For G2C A39U, the self-cleavage was 0.1. In the case of G19C G36U, the self-cleavage is reported as 0.06. Variant A14G C42U has a self-cleavage of 0.21. Variant A24C G33A has a self-cleavage of 0.06. Variant G40A C46U has a self-cleavage of 0.14. U20G C23A showed a self-cleavage of 0.48. With A12G U32A the self-cleavage was 0.15. A6G A41U showed a self-cleavage of 0.1. Variant G35A C37A has a self-cleavage of 0.14. Work on G1C A26G yielded a self-cleavage of 0.09. Variant A6G G17A has a self-cleavage of 0.09. Variant A6G U20G has a self-cleavage of 0.13. A16U G19U gave a self-cleavage of 0.2. G21U G27A gave a self-cleavage of 0.45. Variant G30C G35A has a self-cleavage of 0.09. Variant A6G C15G has a self-cleavage of 0.02. Variant A14U G40A has a self-cleavage of 0.05. Work on C8G G21U yielded a self-cleavage of 0.13. A14C U32A gave a self-cleavage of 0.07. U9A C46G gave a self-cleavage of 0.12. A4C C37A showed a self-cleavage of 0.28. G22U G36U gave a self-cleavage of 0.06. With A25U U43A the self-cleavage was 0.21. Variant C31G G40A has a self-cleavage of 0.05. Variant C37U C46A has a self-cleavage of 0.07. A14U A26G showed a self-cleavage of 0.34. Variant U43G G44U has a self-cleavage of 0.25. With G7A C45A the self-cleavage was 0.19. Work on C3A A6U yielded a self-cleavage of 0.76. Variant C37U G40C has a self-cleavage of 0.24. G1A A24U gave a self-cleavage of 1.15. In the case of G5C C13A, the self-cleavage is reported as 0.09. A25G G33C gave a self-cleavage of 0.04. In the case of G7U G27A, the self-cleavage is reported as 0.07.
